{
  "source": "paper PMC12234955",
  "about": "(Nature Communications, 2025)",
  "binders": {"B1": {"name": "Norrin-Fc (human Norrin K25-S133, HRV 3C site, human IgG1 Fc, C-terminal FLAG), Q00604 25-133 (Fc fusion)", "chain": "KTDSSFIMDSDPRRCMRHHYVDSISHPLYKCSSKMVLLARCEGHCSQASRSEPLVSFSTVLKQPFRSSCHCCRPQTSKLKALRLRCSGGMRLTATYRYILSCHCEECNS"}, "B2": {"name": "Norrin-Fc (human Norrin K25-S133, HRV 3C site, human IgG1 Fc, C-terminal FLAG) (Fc fusion)", "chain": "B1 chain"}, "B3": {"name": "NB18 (VHH)", "VHH": "QVQLQESGGGSVQAGGSLRLSCAASGYTYSRTCMAWFRQAPGKEREGIATINSDGTTTYADSVKGRFTISRDNAKNTLSLQMNSLKPEDTAMYYCAAASLSTRGCSRAEWEYRYWGQGTQVTVSS"}},
  "key": {"[1]": {"molecular_target": "T1, Norrin-Fc (human Norrin K25-S133, HRV 3C site, human IgG1 Fc, C-terminal FLAG) (human), Q00604", "T1 chain": "B1 chain", "assay": "cryo-EM structure", "conditions": "remark: other sources report otherwise"}, "[2]": {"molecular_target": "Human LGR4 (residues A25-Q833), C-terminal Flag tag (human, UniProt Q9BXB1 25-833)", "assay": "cryo-EM structure"}, "[3]": {"molecular_target": "LGR4-ECD (LGR4 ectodomain) (human, UniProt Q9BXB1)", "assay": "BLI"}},
  "data": [
    {"binder": "B1", "values": [
      {"measurement": "stoichiometry N", "setting": "[1]", "result": 2}
    ]},
    {"binder": "B2", "values": [
      {"measurement": "stoichiometry N", "setting": "[2]", "result": "1 Norrin chains per LGR4 (2:2)"}
    ]},
    {"binder": "B3", "values": [
      {"measurement": "Kd", "setting": "[3]", "result": 0.15, "unit": "nM"}
    ]}
  ]
}
